Measurements: the supplement of paper PMC9732359
± gives the uncertainty stated by the source.

Experiment: protein stability index of a GFP-peptide fusion (yeast GPS) (PSI 1-4); higher = more stable; sorted into four equal gates, so the index is relative within each strain
In short: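 Sequencing reads from sorted gates were used to score each peptide. The library consisted of tiled 17-residue yeast protein peptides fused downstream of GFP on a Cherry-expressing plasmid, pooled and carried in yeast. Mid-log cultures in leucine-free medium were split into four equal gates by GFP/Cherry ratio, and each gate's plasmids were PCR-amplified and Illumina-sequenced. The protein stability index adds up, over all gates, the read frequency multiplied by the gate number.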

## QPQQQLGDMENNLEKYP [RTT102]
doa10∆
  protein stability index: 3.54 ± 0.092
pdr5∆
  protein stability index: 3.15 ± 0.12
san1∆
  protein stability index: 3.62 ± 0.077
ubr1∆
  protein stability index: 3.33 ± 0.1

## QPTPRSASNTAKSTPNT [GAL11]
doa10∆
  protein stability index: 2.75 ± 0.061
pdr5∆
  protein stability index: 2.93 ± 0.05
san1∆
  protein stability index: 2.75 ± 0.058
ubr1∆
  protein stability index: 2.55 ± 0.048

## QQKQQQQQQQHQQQQQQ [SNF5]
doa10∆
  protein stability index: 2.73 ± 0.033
pdr5∆
  protein stability index: 2.8 ± 0.03
san1∆
  protein stability index: 2.81 ± 0.029
ubr1∆
  protein stability index: 2.769 ± 0.026

## QQLRRALPDVVVKGLPD [RPO31]
doa10∆
  protein stability index: 2.19 ± 0.069
pdr5∆
  protein stability index: 2.31 ± 0.057
san1∆
  protein stability index: 1.93 ± 0.078
ubr1∆
  protein stability index: 2.36 ± 0.083

## QQPNPLQDLISVYGLDD [ROX3]
doa10∆
  protein stability index: 1.95 ± 0.073
pdr5∆
  protein stability index: 1.76 ± 0.061
san1∆
  protein stability index: 2.02 ± 0.15
ubr1∆
  protein stability index: 1.97 ± 0.084

## QQQQAAALANANNNINS [SWI1]
doa10∆
  protein stability index: 2.51 ± 0.058
pdr5∆
  protein stability index: 2.3 ± 0.053
san1∆
  protein stability index: 2.46 ± 0.047
ubr1∆
  protein stability index: 2.65 ± 0.06

## QQQQQQQQQQQQQGQIP [SNF5]
doa10∆
  protein stability index: 2.729 ± 0.023
pdr5∆
  protein stability index: 2.79 ± 0.023
san1∆
  protein stability index: 2.75 ± 0.022
ubr1∆
  protein stability index: 2.826 ± 0.02

## QQQTNALNGIDINTVNT [GRR1]
doa10∆
  protein stability index: 3.31 ± 0.053
pdr5∆
  protein stability index: 3.25 ± 0.055
san1∆
  protein stability index: 3.24 ± 0.044
ubr1∆
  protein stability index: 3.19 ± 0.05

## QQRFQALQQQQQQQQNQ [SWI1]
doa10∆
  protein stability index: 2.05 ± 0.05
pdr5∆
  protein stability index: 2.07 ± 0.046
san1∆
  protein stability index: 2.25 ± 0.052
ubr1∆
  protein stability index: 2.04 ± 0.059

## QQRIREIGLLPEDALVN [SMC3]
san1∆
  protein stability index: 3.27 ± 0.2
ubr1∆
  protein stability index: 3.25 ± 0.13

## QQTGLVDAITRCYQPFE [SNU114]
doa10∆
  protein stability index: 2.53 ± 0.069
pdr5∆
  protein stability index: 2.76 ± 0.056
san1∆
  protein stability index: 3.04 ± 0.041
ubr1∆
  protein stability index: 2.98 ± 0.05

## QRDLGLYVVGLFDTYHA [RRP6]
doa10∆
  protein stability index: 2.38 ± 0.046
pdr5∆
  protein stability index: 2.53 ± 0.043
san1∆
  protein stability index: 1.91 ± 0.062
ubr1∆
  protein stability index: 2.57 ± 0.033

## QRDLYKRKEELVSTLTT [SMC2]
doa10∆
  protein stability index: 2.14 ± 0.073
pdr5∆
  protein stability index: 1.91 ± 0.063
san1∆
  protein stability index: 2.64 ± 0.071
ubr1∆
  protein stability index: 1.82 ± 0.053

## QRFVGHKSDVMSVDIDK [ASC1]
doa10∆
  protein stability index: 3.04 ± 0.095
pdr5∆
  protein stability index: 3.06 ± 0.061
san1∆
  protein stability index: 2.69 ± 0.082
ubr1∆
  protein stability index: 2.96 ± 0.071

## QRIAKNDPEYMDTSDDA [DLS1]
doa10∆
  protein stability index: 3.01 ± 0.16
pdr5∆
  protein stability index: 3.15 ± 0.12
san1∆
  protein stability index: 2.82 ± 0.15
ubr1∆
  protein stability index: 3.01 ± 0.079

## QRILEVLGTPDQKIWPY [SSN3]
doa10∆
  protein stability index: 2.2 ± 0.076
pdr5∆
  protein stability index: 1.45 ± 0.057
san1∆
  protein stability index: 1.76 ± 0.093
ubr1∆
  protein stability index: 1.6 ± 0.068

## QRTATLCLEKLMCLSSK [YCS4]
doa10∆
  protein stability index: 1.6 ± 0.049
pdr5∆
  protein stability index: 2.29 ± 0.075
san1∆
  protein stability index: 2.49 ± 0.11
ubr1∆
  protein stability index: 1.78 ± 0.057

## QRTLSKSFYSTATGAAS [CYT1]
doa10∆
  protein stability index: 1.98 ± 0.06
pdr5∆
  protein stability index: 2.39 ± 0.054
san1∆
  protein stability index: 2.43 ± 0.068
ubr1∆
  protein stability index: 2.39 ± 0.048

## QRVFKPVDITMMENYQN [PRP8]
doa10∆
  protein stability index: 2.43 ± 0.063
pdr5∆
  protein stability index: 2.27 ± 0.074
san1∆
  protein stability index: 2.71 ± 0.073
ubr1∆
  protein stability index: 2.41 ± 0.048

## QRYVKSVKSVKFPTRKI [RPC34]
san1∆
  protein stability index: 3.26 ± 0.11

## QSEHLEAVVDQDVQRTC [FAS1]
doa10∆
  protein stability index: 3.47 ± 0.25
pdr5∆
  protein stability index: 3.36 ± 0.14
san1∆
  protein stability index: 3.49 ± 0.094
ubr1∆
  protein stability index: 3.38 ± 0.095

## QSQPQEKFSEKMLKIWT [ECM29]
doa10∆
  protein stability index: 3.57 ± 0.26
pdr5∆
  protein stability index: 3.08 ± 0.15
san1∆
  protein stability index: 2.9 ± 0.21
ubr1∆
  protein stability index: 3.03 ± 0.2

## QSSRVVSLSQLLFIVGQ [YCS4]
doa10∆
  protein stability index: 1.75 ± 0.063
pdr5∆
  protein stability index: 1.33 ± 0.048
san1∆
  protein stability index: 1.83 ± 0.11
ubr1∆
  protein stability index: 1.4 ± 0.054

## QTQREKAPLQPNSERET [IRR1]
doa10∆
  protein stability index: 3.1 ± 0.061
pdr5∆
  protein stability index: 3.2 ± 0.059
san1∆
  protein stability index: 3.06 ± 0.039
ubr1∆
  protein stability index: 3.07 ± 0.054

## QTRKEYNTSILEFRWLT [SIN4]
doa10∆
  protein stability index: 1.74 ± 0.073
pdr5∆
  protein stability index: 1.74 ± 0.059
san1∆
  protein stability index: 1.83 ± 0.093
ubr1∆
  protein stability index: 2.42 ± 0.098

## QTSRGLFGNNNTNNINN [YGL172W/NUP49]
doa10∆
  protein stability index: 3.1 ± 0.18
pdr5∆
  protein stability index: 3.04 ± 0.13
san1∆
  protein stability index: 3.13 ± 0.16
ubr1∆
  protein stability index: 3.14 ± 0.16

## QTYGETTAVDALQKGLK [RPC19]
doa10∆
  protein stability index: 2.03 ± 0.13
pdr5∆
  protein stability index: 1.1 ± 0.12
san1∆
  protein stability index: 1.16 ± 0.29
ubr1∆
  protein stability index: 1.14 ± 0.082

## QVEYALEAIKQGSVTVG [PRE5]
doa10∆
  protein stability index: 2.92 ± 0.12
pdr5∆
  protein stability index: 3.33 ± 0.21
san1∆
  protein stability index: 3.14 ± 0.17
ubr1∆
  protein stability index: 3.09 ± 0.18

## QVIKNEVCAKMPNIELY [SSN2]
doa10∆
  protein stability index: 2.83 ± 0.076
pdr5∆
  protein stability index: 2.81 ± 0.058
san1∆
  protein stability index: 2.7 ± 0.074
ubr1∆
  protein stability index: 2.35 ± 0.06

## QVLFQGLIYSFNEENGE [POP1]
doa10∆
  protein stability index: 3.1 ± 0.13
pdr5∆
  protein stability index: 3.24 ± 0.18
san1∆
  protein stability index: 2.77 ± 0.26
ubr1∆
  protein stability index: 3.02 ± 0.18

## QVLLDEEYKQLVKDRKF [RPO21]
doa10∆
  protein stability index: 3.07 ± 0.085
pdr5∆
  protein stability index: 3.28 ± 0.06
san1∆
  protein stability index: 3.15 ± 0.14
ubr1∆
  protein stability index: 2.82 ± 0.1

## QVLMDINTLNGGSSDTA [GAL11]
doa10∆
  protein stability index: 3.29 ± 0.074
pdr5∆
  protein stability index: 3.22 ± 0.072
san1∆
  protein stability index: 3.15 ± 0.061
ubr1∆
  protein stability index: 3.1 ± 0.061

## QWSRIVLQNVFKLVSTP [MED1]
doa10∆
  protein stability index: 1.4 ± 0.039
pdr5∆
  protein stability index: 1.24 ± 0.043
san1∆
  protein stability index: 1.23 ± 0.08
ubr1∆
  protein stability index: 1.34 ± 0.038

## RAFQKQPHIFNNPKVKT [RPS11A]
doa10∆
  protein stability index: 2.33 ± 0.052
pdr5∆
  protein stability index: 2.48 ± 0.043
san1∆
  protein stability index: 2.59 ± 0.044
ubr1∆
  protein stability index: 2.21 ± 0.028

## RAFTKKVSSASAAASES [RPL16B]
doa10∆
  protein stability index: 2.42 ± 0.065
pdr5∆
  protein stability index: 2.19 ± 0.052
san1∆
  protein stability index: 2.16 ± 0.065
ubr1∆
  protein stability index: 1.85 ± 0.054

## RAGQRGYHSRTSINHKI [RPL3]
doa10∆
  protein stability index: 2.85 ± 0.13
pdr5∆
  protein stability index: 3.23 ± 0.14
san1∆
  protein stability index: 3 ± 0.096
ubr1∆
  protein stability index: 3.5 ± 0.12

## RAGQRTRFKAVVVVGDS [RPS2]
doa10∆
  protein stability index: 2.07 ± 0.056
pdr5∆
  protein stability index: 2.2 ± 0.063
san1∆
  protein stability index: 2.28 ± 0.088
ubr1∆
  protein stability index: 2.29 ± 0.048

## RAHGRINKYESSPSHIE [RPL17A]
doa10∆
  protein stability index: 2.9 ± 0.07
pdr5∆
  protein stability index: 3.4 ± 0.077
san1∆
  protein stability index: 2.99 ± 0.08
ubr1∆
  protein stability index: 3.17 ± 0.061

## RALRIETGNFSWASEGI [RPS8A]
doa10∆
  protein stability index: 3.15 ± 0.036
pdr5∆
  protein stability index: 3.15 ± 0.037
san1∆
  protein stability index: 3.11 ± 0.027
ubr1∆
  protein stability index: 3.052 ± 0.026

## RAQEEVKRIQSVPLVIG [RPT3]
doa10∆
  protein stability index: 3.52 ± 0.13
pdr5∆
  protein stability index: 3.16 ± 0.15
san1∆
  protein stability index: 3.04 ± 0.11
ubr1∆
  protein stability index: 3.21 ± 0.066

## RCGRRSFHVQKKTCSSC [RPL37A]
doa10∆
  protein stability index: 2.3 ± 0.04
pdr5∆
  protein stability index: 2.56 ± 0.061
san1∆
  protein stability index: 2.47 ± 0.048
ubr1∆
  protein stability index: 2.39 ± 0.038

## RDHEKDTYRTLMEEIES [YIL149C/MLP2]
doa10∆
  protein stability index: 3.31 ± 0.044
pdr5∆
  protein stability index: 3.38 ± 0.043
san1∆
  protein stability index: 3.414 ± 0.031
ubr1∆
  protein stability index: 3.26 ± 0.037

## RDMTYSAPIYVDIEYTR [RET1]
doa10∆
  protein stability index: 2.17 ± 0.092
pdr5∆
  protein stability index: 1.98 ± 0.083
san1∆
  protein stability index: 1.79 ± 0.14
ubr1∆
  protein stability index: 1.81 ± 0.069

## RDQGNDSLNDDLNKENK [YIL149C/MLP2]
doa10∆
  protein stability index: 3.23 ± 0.18
san1∆
  protein stability index: 3.01 ± 0.15
ubr1∆
  protein stability index: 3.32 ± 0.063

## RDVRDQAAGGLSIRLTN [RPN8]
doa10∆
  protein stability index: 2.89 ± 0.087
pdr5∆
  protein stability index: 2.85 ± 0.095
san1∆
  protein stability index: 2.89 ± 0.097
ubr1∆
  protein stability index: 2.6 ± 0.071

## RDYSKEILGINLANEQP [SIR4]
doa10∆
  protein stability index: 2.71 ± 0.048
pdr5∆
  protein stability index: 3.04 ± 0.044
san1∆
  protein stability index: 3.07 ± 0.039
ubr1∆
  protein stability index: 3.02 ± 0.036

## REIESLIAEETNNKKLL [SMC3]
doa10∆
  protein stability index: 2.78 ± 0.18
pdr5∆
  protein stability index: 2.86 ± 0.082
san1∆
  protein stability index: 3.01 ± 0.11
ubr1∆
  protein stability index: 2.92 ± 0.15

## RELARIKKYASVVRVLV [RPL3]
doa10∆
  protein stability index: 1.32 ± 0.09
pdr5∆
  protein stability index: 1.17 ± 0.12
san1∆
  protein stability index: 1.13 ± 0.18
ubr1∆
  protein stability index: 1.2 ± 0.11

## RELEQIKPKIALQDKEI [SNF12]
doa10∆
  protein stability index: 3.15 ± 0.18
pdr5∆
  protein stability index: 3.35 ± 0.17
ubr1∆
  protein stability index: 3.05 ± 0.13

## RELLNPRYTYHTIFSDV [YML031W/NDC1]
doa10∆
  protein stability index: 3.01 ± 0.053
pdr5∆
  protein stability index: 3.05 ± 0.052
san1∆
  protein stability index: 2.71 ± 0.045
ubr1∆
  protein stability index: 2.93 ± 0.058

## RENNFRVASDTVHEMEE [SMC4]
pdr5∆
  protein stability index: 3.36 ± 0.28
san1∆
  protein stability index: 3.19 ± 0.13
ubr1∆
  protein stability index: 2.95 ± 0.27

## REQHIDTICQSIQEQIQ [SNF5]
doa10∆
  protein stability index: 3.12 ± 0.068
pdr5∆
  protein stability index: 3.25 ± 0.11
san1∆
  protein stability index: 3.25 ± 0.053
ubr1∆
  protein stability index: 3.3 ± 0.068
